Reference: WO2009082624A2

Target: human IL-23 receptor (huIL-23R/huIL-12Rβ1) on Baf3/KZ134/huIL-23R/huIL-12Rβ1 Clone 6 cells (human) (UniProt P42701)
Experiment: cell-based or functional assay

human IL-23 receptor (huIL-23R/huIL-12Rβ1) on Baf3/KZ134/huIL-23R/huIL-12Rβ1 Clone 6 cells (human), sequence (chain, as listed by the source, chain 1 of 2, other chains not shown): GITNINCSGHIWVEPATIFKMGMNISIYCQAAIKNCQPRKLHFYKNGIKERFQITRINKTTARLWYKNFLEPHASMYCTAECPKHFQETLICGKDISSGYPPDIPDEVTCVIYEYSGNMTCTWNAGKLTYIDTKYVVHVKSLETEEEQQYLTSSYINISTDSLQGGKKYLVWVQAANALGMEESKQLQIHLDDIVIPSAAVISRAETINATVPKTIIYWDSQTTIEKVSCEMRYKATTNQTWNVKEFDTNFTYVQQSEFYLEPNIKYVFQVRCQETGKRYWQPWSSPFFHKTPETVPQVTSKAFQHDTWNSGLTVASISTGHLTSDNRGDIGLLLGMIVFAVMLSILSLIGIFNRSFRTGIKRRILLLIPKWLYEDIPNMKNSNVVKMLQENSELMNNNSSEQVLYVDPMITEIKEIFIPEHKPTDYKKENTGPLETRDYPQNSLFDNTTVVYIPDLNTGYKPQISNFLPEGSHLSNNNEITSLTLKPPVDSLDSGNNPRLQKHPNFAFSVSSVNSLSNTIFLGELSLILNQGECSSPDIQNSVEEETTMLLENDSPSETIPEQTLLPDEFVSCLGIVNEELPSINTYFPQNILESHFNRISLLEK

- EC50, STAT3 phosphorylation in Baf3/KZ134/huIL-23R/huIL-12Rβ1 Clone 6 cells (ZymoGenetics IL-23): 0.02 nM
- EC50, STAT3 phosphorylation in Baf3/KZ134/huIL-23R/huIL-12Rβ1 Clone 6 cells (eBioscience IL-23): 0.03 nM
Substance: human IL-23 (p19/p40 heterodimer), recombinant (from UniProt Q9NPF7 20-189; P29460 23-328) (ligand)
